Experiments:
[1] = target: Bin1b SH3 domain (zebrafish); assay: ITC
[2] = target: Full length zebrafish Cavin4b (zebrafish) (UniProt Q5PQY9); assay: ITC

Substance | Kd [1] | Kd [2]
Cavin4b PRD peptide | 61.7 µM | –
Bin1b SH3 domain (domain or fragment) | – | 55.9 µM
Chikungunya virus (CHIKV) proline-rich peptide | 0.0889 µM | –

Source: publication doi:10.1101/2021.01.13.426456
